In article PMC7403387 one finds decrease in ZIKV attachment to Vero cells (RT-qPCR) with NCAM1 ECD protein or anti-NCAM1 antibody data, which are given here for one substance.

This assay concerns the target Neural cell adhesion molecule (NCAM1), endogenous in Vero cells (African green monkey (endogenous in Vero)).

The substance “Zika virus (ZIKV) E protein on the surface of purified mature virions, labelled with the maleimide-diazirine-biotin probe (natural protein)” gave a decrease in ZIKV attachment to Vero cells (RT-qPCR) with NCAM1 ECD protein or anti-NCAM1 antibody of 40%.
